The target in one experiment is Desert Hedgehog (Dhh) (human, UniProt O43323 23-198). Put plainly: immobilized Dhh binding assay; FIG. 13C.
The next experiment deals with Sonic Hedgehog (Shh) (human, UniProt Q15465 24-197). Put plainly: immobilized Shh binding assay; FIG. 13C.
In a further experiment the target is Indian Hedgehog (Ihh) (human, UniProt Q14623 28-202). Put plainly: immobilized Ihh binding assay; FIG. 13C.
The target in experiment [1] is T1, PD-L1 (Programmed Death-Ligand 1), recombinant, His-tagged (human, UniProt Q9NZQ7 18-134).
T1 chain: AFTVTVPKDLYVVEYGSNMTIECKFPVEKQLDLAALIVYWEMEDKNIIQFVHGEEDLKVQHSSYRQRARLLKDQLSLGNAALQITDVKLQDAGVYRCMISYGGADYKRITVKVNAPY
Put plainly: in vitro PD-L1 binding assay.

Experiment [2] addresses T1, PD-L1 (Programmed Death-Ligand 1), …. Put plainly: in vitro PD-L1 binding assay.
The next experiment addresses cCLP002(pCaaF). Put plainly: in vitro PD-L1 binding assay.
For a further experiment, the target named is cRK10(pCmF). Put plainly: in vitro PD-L1 binding assay.
The target of a further experiment is cCLP002(pCmF). Put plainly: in vitro PD-L1 binding assay.
In experiment [3] the target is T1, PD-L1 (Programmed Death-Ligand 1), …. Put plainly: in vitro PD-L1 binding assay; FIG. 15A.

Starred links: 1 amine or outer side, 2 acyl side, 3 side chain; linkers in the order of their positions; H or OH if unused. Positions of bridges follow the written chain, without caps; N, C: chain ends. Non-standard residues stand in square brackets, D forms with d. No end group written: not given here. O2beY = O-(2-bromoethyl)-tyrosine (p-2beF), reacts with Cys to form a thioether, O=C([C@H](Cc1ccc(OCCBr)cc1)N[*:1])[*:2]; pCaaF = p-(2-chloroacetamido)-phenylalanine, O=C(CCl)Nc1ccc(C[C@H](N[*:1])C(=O)[*:2])cc1

Chain of Indian Hedgehog (Ihh) (Q14623 28-202): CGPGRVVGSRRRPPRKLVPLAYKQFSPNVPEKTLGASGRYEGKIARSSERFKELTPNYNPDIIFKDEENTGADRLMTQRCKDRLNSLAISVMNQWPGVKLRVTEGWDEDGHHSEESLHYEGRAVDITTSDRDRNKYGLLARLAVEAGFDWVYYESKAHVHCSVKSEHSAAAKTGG

By Kd is commonly meant a measure of binding affinity in units of concentration. For DYKDDDDKGSGSTLSW[O2beY]EAMDMCTSSQQQQQQ-{Fc-H6} (Fc fusion, thioether 17-23; also: dimeric through the Fc) [L2-m5-Tras-Fc], the equilibrium dissociation constant (Kd) came to 9 nM with Desert Hedgehog (Dhh), 8 nM with Sonic Hedgehog (Shh) and 8 nM with Indian Hedgehog (Ihh).

As for DYKDDDDKGSGSTYLCGAISLA[pCaaF]KAQIKESLEAAAK-{Fc-H6} (Fc fusion, thioether 16-23) [FLAG-cRK10-EAAAK-Tras-Fc-His], in experiment [1], the Kd was 88 nM.

On to DYKDDDDKGSGSWHFS[pCaaF]NWRWLPCQQQQQQ (Fc fusion, thioether 17-24 (inferred); not fully specified (C-terminus)) [cCLP003 (pCaaF)-Tras-Fc], for which the equilibrium dissociation constant (Kd) in [2] is 238 nM.

B1: PD-L1 (ligand)
chain: AFTVTVPKDLYVVEYGSNMTIECKFPVEKQLDLAALIVYWEMEDKNIIQFVHGEEDLKVQHSSYRQRARLLKDQLSLGNAALQITDVKLQDAGVYRCMISYGGADYKRITVKVNAPY
With B1, the Kd in the experiment with cCLP002(pCaaF) is 87000 nM; with cRK10(pCmF), greater than 100000 nM; with cCLP002(pCmF), greater than 15000 nM.

Regarding TYLCGAISLA[pCaaF]KAQIKESL (thioether 4-11) [cyclic peptide cRK10 (pCaaF)], the dissociation constant Kd in [3] was 12000 nM.

For DYKDDDDKGSGSTYLCGAISLA[pCaaF]KAQIKESLGSGSGS-{Fc-H6} (Fc fusion, thioether 16-23) [FLAG-cRK10-(GS)3-Tras-Fc-His], the Kd in [1] was 88 nM.

For DYKDDDDKGSGSTYLCGAISLA[pCaaF]KAQIKESLPAPAP-{Fc-H6} (Fc fusion, thioether 16-23) [FLAG-cRK10-PAPAP-Tras-Fc-His], in experiment [1], the Kd stood at 90 nM.

For the origin of these results see patent publication US20250197448A1 (published 2025).
